The values below come from paper PMC7185751 (Biochimica et Biophysica Acta. Proteins and Proteomics, 2014).

By pKa is commonly meant the negative logarithm of the acid dissociation constant.

The target in series [1] is T1, α-chymotrypsin (Bos taurus, UniProt P00766). To be noted: from pH 7.2 to 3.2 or 10.2; cited from earlier work.
Series [2] can be described thus: 13C-NMR pH titration of free inhibitor. It counts as physicochemical. The following applies: carboxyl group, determined by 13C-NMR.
Series [3] deals with T2, His57 (UniProt position 57, VVTAAHCGVTT). The following applies: cited from earlier work.
Series [4] has as its system histidine-57 in α-chymotrypsin. The following applies: cited from earlier work.
Series [5] concerns the target T1, α-chymotrypsin. To be noted: from pH 8 to 3, chymotrypsin; cited from earlier work.
Series [6] deals with T2, His57. Kind of series: NMR. The following applies: 25 °C; hemiketal complex with the glyoxal inhibitor Z-Ala-Ala-Phe-COCHO; cited from earlier work.

Where two headings read alike, the source gives them in different places. Where a SMILES comes first, the peptide text is derived from it.

As for `C[C@H](NC(=O)OCc1ccccc1)C(=O)N1CCC[C@H]1C(=O)N[C@@H](Cc1ccccc1)C(=O)C=O` [ZAPF-COCHO], the “change of hemiketal formation” value on α-chymotrypsin [1] was “decreases”.
Turning to `CC(NC(=O)OCc1ccccc1)C(=O)NC(C)C(=O)NC(Cc1ccccc1)[13C](=O)O` (stereo not drawn) [ZAAF-^13COOH], the pKa in series [2] is recorded as 3.52 ± 0.03.
Take “chymotrypsin (activation form not specified in the quoting sentence) (Bos taurus (inferred))”: the pKa with His57 [3] (negatively charged tetrahedral adduct with peptidyl boronic acid inhibitors) is given as more than 10.
Consider `CC(=O)N[C@@H](CC(C)C)C(=O)N[C@H](C=O)Cc1ccccc1` [Acetyl-Leu-Phe-CHO] (Ac-Leu-Phe-aldehyde), for which the “histidine pKa in the complex with α-chymotrypsin” value in series [4] was 6.5.
As for `O=C[C@H](Cc1ccccc1)NC(=O)c1ccccc1` [Bz-Phe-CHO], at α-chymotrypsin [5], the “fold increase in Ki” value was 4 fold.
In the case of “alpha-chymotrypsin (Bos taurus (inferred; the article only says commercial alpha-chymotrypsin from Sigma))”, the pKa was more than 11 with His57 [6], 6.5 with His57 [3] (complex with the aldehyde inhibitor Acetyl-Leu-Phe-CHO (hemiacetal)) and 6.7 with His57 [3] (free enzyme).
Take “delta-chymotrypsin (Bos taurus (inferred))”: the pKa with His57 [3] (free enzyme) is 7.5.
